Source: patent US20210275685A1 (IMMUNOGEN, published 2021)
Changes are numbered by the printed parent chain. One block for each binder: values may come before it.

Experiments:
[1] = target: T1, huFcRn (Homo sapiens, UniProt P55899); assay: sensorgram (RU against time) at pH 6.0: FcRn immobilized, antibody injected at 25 nM and 100 nM; responses of about 60-70 RU and about 190 RU
T1 construct: construct not described; also called human neonatal Fc receptor

[2] = target: T2, His-tagged soluble human ADAM9 (human, UniProt Q13443 206-697); assay: BIACORE, against antibodies without N54F (Table 3)
T2 construct: also called shADAM9-His; huADAM9-His
T2 sequence: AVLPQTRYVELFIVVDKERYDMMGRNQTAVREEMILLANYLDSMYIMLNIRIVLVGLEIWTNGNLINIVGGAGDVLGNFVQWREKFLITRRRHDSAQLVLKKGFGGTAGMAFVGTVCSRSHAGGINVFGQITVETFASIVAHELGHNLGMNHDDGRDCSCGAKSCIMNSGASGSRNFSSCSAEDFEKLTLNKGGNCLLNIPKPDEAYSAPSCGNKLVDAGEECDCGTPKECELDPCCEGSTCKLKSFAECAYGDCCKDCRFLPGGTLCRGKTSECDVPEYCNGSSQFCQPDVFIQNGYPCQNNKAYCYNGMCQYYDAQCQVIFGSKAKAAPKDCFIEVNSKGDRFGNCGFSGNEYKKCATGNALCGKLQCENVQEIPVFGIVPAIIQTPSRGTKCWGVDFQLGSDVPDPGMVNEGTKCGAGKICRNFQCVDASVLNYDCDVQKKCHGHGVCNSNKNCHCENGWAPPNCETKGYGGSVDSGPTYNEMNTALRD
Text: The relative binding affinity of the humanized/optimized antibodies hMAB-A (1.1), hMAB-A (2.2), hMAB-A (2.3), hMAB-A (3.3), hMAB-A (4.4) and the chimeric chMAB-A (having murine VH/VL Domains) to huADAM was investigated using BIACORE® analysis, in which His-tagged soluble human ADAM9 (“shADAM9-His,” containing an extracellular portion of human ADAM9 fused to a histidine-containing protein) was passed over a surface coated with immobilized antibody. Briefly, each antibody was captured on a Fab2 goat anti-human Fc surface and then incubated in the presence of different concentrations (6.25-100 nM) of the shADAM9-His protein. The kinetics of binding were determined via BIACORE® analysis binding (normalized 1:1 Langmuir binding model). Binding to cynoADAM9 was examined by FACS as described above and by ELISA.

T1 sequence (P55899 24-297 limits assumed, form in doubt): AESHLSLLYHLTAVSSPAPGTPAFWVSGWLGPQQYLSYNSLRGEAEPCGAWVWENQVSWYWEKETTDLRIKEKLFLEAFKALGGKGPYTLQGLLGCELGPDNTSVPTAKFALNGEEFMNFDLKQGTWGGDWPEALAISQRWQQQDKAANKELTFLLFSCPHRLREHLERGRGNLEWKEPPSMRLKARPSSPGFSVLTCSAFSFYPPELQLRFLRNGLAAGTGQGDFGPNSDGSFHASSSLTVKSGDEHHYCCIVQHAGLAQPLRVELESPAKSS

- Kd [1]: 161 nM
B1: hMAB-A (2I.2) (antibody, human IgG1, kappa)
heavy: not shown
light: DIVMTQSPDSLAVSLGERATISCKASQSVDYSGDSYMNWYQQKPGQPPKLLIYAASDLESGIPARFSGSGSGTDFTLTISSLEPEDFATYYCQQSHEDPFTFGQGTKLEIKRTVAAPSVFIFPPSDEQLKSGTASVVCLLNNFYPREAKVQWKVDNALQSGNSQESVTEQDSKDSTYSLSSTLTLSKADYEKHKVYACEVTHQGLSSPVTKSFNRGEC
notes: also called MAB-A VH(2I); MAB-A VH(2I.2)

- fold increase in affinity [2]: ~2 fold
B4: hMAB-A (3.3) (antibody, V domains shown)
VH: EVQLVESGGGLVKPGGSLRLSCAASGFTFSSYWMHWVRQAPGKGLEWVGEIIPIFGHTNYNERFQGRFTISLDNSKNTLYLQMGSLRAEDTAVYYCARGGYYYYGSRDYFDYWGQGTTVTVSS
VL: DIVMTQSPDSLAVSLGERATISCRASQSVDYSGDSYMNWYQQKPGQPPKLLIYAASDLESGIPARFSGSGSGTDFTLTISSLEPEDFATYYCQQSHEDPFTFGQGTKLEIK
notes: human Fc; also called hMAB-A VH(3)/hMAB-A VL(3)

Second part, the binder before the results:

B2: hMAB-A (2.2) (antibody, V domains shown)
VH: B4 VH with R63K, Q65K, G66S
VL: B4 VL with R24K
notes: also called parental hMAB-A (2.2); hMAB-A VH(2)/hMAB-A VL(2)
- fold increase in affinity [2]: ~2 fold

B3: hMAB-A (2.3) (antibody, V domains shown)
VH: B4 VH with R63K, Q65K, G66S
VL: B4 VL
notes: human Fc; also called hMAB-A VH(2)/hMAB-A VL(3)
- fold increase in affinity [2]: ~2 fold
